Results on one molecule are retold here after patent KR20240034954A (dated 2024).

Assay [1] concerns the target T1, 서열번호 2의 아미노산 서열을 포함하는 SIRPα 변이체 (Homo sapiens (Human), UniProt P78324 31-149).
T1 construct: Engineered SIRPα variant; also called vSIRPα; vSIRPα antigen
T1 chain: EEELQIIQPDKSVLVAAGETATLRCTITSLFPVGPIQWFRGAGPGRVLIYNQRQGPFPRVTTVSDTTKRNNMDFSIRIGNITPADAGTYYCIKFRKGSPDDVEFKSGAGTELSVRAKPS
Kind of assay: indirect ELISA, vSIRPα (SEQ ID NO 2) coated at 1.0 ug/ml, anti-mouse IgG Fcγ-peroxidase secondary.

In assay [2] the target is T2, 야생형의 SIRPα (Homo sapiens (Human), UniProt P78324 31-149, limits assumed).
T2 construct: also called wtSIRPα; wild-type SIRPα
As to the kind of experiment: western blot.

B1: 항-vSIRPα 단일클론 항체 (SIRPα 변이체 특이적인 단일클론 항체) (antibody, V domains shown)
VH: EVQLQQSGPELVKPGASVKISCKASGYSFTGYYMHWVKQSHVKSLEWIGRINPYNGATNYNQNFKDKASLTLDKSSSTAYVELHSLTSEDSAVYYCTRNDGYYWYFDVWGAGTTVTVSS
VL: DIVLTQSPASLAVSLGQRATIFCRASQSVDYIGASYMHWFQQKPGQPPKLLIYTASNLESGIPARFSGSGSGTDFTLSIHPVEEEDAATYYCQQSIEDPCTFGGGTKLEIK
notes: Two clones were selected; also called 제작된 2종 항체; 개발한 항체 2종
Turning to B1, the figures for the binding result in assay [1] and in assay [2] were “binds” and “no binding”, respectively.
